Data taken from the RNAGym collection of RNA variant scans (doi:10.7554/elife.80360).

B1: HDV Ribozyme (parent)
chain: GGCCGGCAUGGUCCCAGCCUCCUCGCUGGCGCCGGCUGGGCAACAUUCCGAGGGGACCGUCCCCUCGGUAAUGGCGAAUGGGACCCA

Variants of: B1
Assay: self-cleavage, relative activity (ratio to wild type); higher = more cleavage; co-transcriptional

Variant	self-cleavage
A43U C61U	0.302
A42G G74A	0.0396
C44A A71C	0.332
C44U U65G	0.812
A42U U47C	0.394
A42U U47A	0.302
A43C C48A	0.386
A43U G82A	0.0811
A45G A71C	1.01
A45G A71G	0.831
A42G A87G	0.602
A43U C64U	0.588
A43U C64G	0.506
A43C U69C	0.582
C44G U72C	0.198
C44G A45C	0.578
A45C U69A	0.987
C44U G67U	0.499
A43U G59U	0.783
A43C A56C	0.59
A43G C84A	0.712
A43G C84G	0.201
A43G G68U	0.436
A43G G59A	0.811

Variant	self-cleavage
A42U G50A	0.383
A43U U79C	0.127
A42U G81U	0.145
A42C A70G	0.312
A42G G52C	0.733
A43G U60C	0.415
C44U A78G	0.242
A43U C44A	1.16
A42C G73C	0.119
A42C A51G	0.26
A42C A51U	0.369
A43G G54C	0.511
A43G G54U	0.514
C44U G59A	0.819
C44U G59U	0.854
C44G G53A	0.665
A43C U79A	0.0791
A43C U79G	0.227
A43C U79C	0.113
A43G C85U	0.446
A43G C85A	0.44
C44G A71G	0.646
A45C G55U	0.525
A45C G55A	0.554

Variant	self-cleavage
A45C U47G	0.95
A42U A78C	0.169
A42U A78U	0.284
C44A A83G	0.443
A42C A56G	0.415
A45C C48A	0.779
A45C C48U	0.642
A42U C85G	0.332
A43G U47G	0.997
A42U G82A	0.157
C44U A87G	0.554
C44U C86G	0.928
C44G A83G	0.233
A45C C63A	0.748
A45C C63U	0.727
A45C C63G	0.427
A42G C48G	0.791
A42G C48A	0.7
A43C A77G	0.317
A45G A51G	0.612
A43G C63G	0.604
A43G C63A	0.642
A42U U46A	0.443
A42U A87C	0.533

Variant	self-cleavage
C44A G53C	0.686
A42G G54U	0.502
A42G U47C	0.532
A43C G55C	0.312
A43U G50A	0.47
A42U A71U	0.369
A45C G59U	0.507
A43C G54U	0.374
A42G G50U	0.542
A42G G50C	0.287
A42U A51C	0.665
A42G G59A	0.831
A43C C57U	0.491
A43C C57G	0.655
A42C C66A	0.332
A43C U60A	0.249
A43C U60G	0.68
A42U U60G	0.615
A45C A83G	0.23
C41U G73C	0.507
A43U C62G	0.332
A43U C62U	0.394
A42G G82A	0.158
A45G A77U	0.482

Variant	self-cleavage
C44G C62A	0.875
A43G G76U	0.892
A43G G76C	0.58
C44A U72G	0.431
C44U C61U	0.716
C44U C61A	0.751
C44G C64A	0.745
A43U C48G	0.435
A43C U65A	0.623
A43C U65C	0.482
A43C U65G	0.453
A43C U72C	0.578
A45G A78U	0.225
C44G G82U	0.232
A45C C49A	0.72
A43G G80C	0.208
A43C G82C	0
A42U A56C	0.629
A42U A56U	0.577
C44U U60A	0.594
C44U A77C	0.277
A42U C57A	0.575
A43G A77U	0.0504
A45C G80U	0.0678

Variant	self-cleavage
A45C G80A	0.187
C44G C48G	0.575
A43U C85G	0.609
A43G G67C	0.465
C41U U46A	0.942
A45C A78C	0.135
A43G G53A	0.532
A42U G53A	0.875
A43C U46A	0.877
A43C U46C	0.435
A42G A77C	0.0723
A43U G55C	0.399
A43U G55A	0.537
A42C A71G	0.361
A42C A45C	0.0462
C44U C84A	0.614
A42G C44A	0.536
A43C C64G	0.415
C44U A56C	1.04
C44U A56G	0.939
A43U U60A	0.594
A42C G68A	0.253
A42C G68U	0.128
C44G A87U	0.675

Variant	self-cleavage
C44U C75A	0.108
A43C A70U	0.322
A45C U79A	0.208
C44A A56U	0.614
A45C G81C	0.0489
A42C G74C	0.166
A42G A78C	0.107
A42G G53C	0.391
A43C C63U	0.529
A43C C63A	0.26
A42G C57A	0.527
A42C C63U	0.19
A43U U47G	0.361
A43U C63A	0.716
A43G C44G	0.798
A43G C44U	0.884
A43G G50U	0.658
C44U G53A	0.709
C44A C84U	0.431
A42G C61A	0.779
C44U G55U	0.831
A45C C62G	0.391
A45C C62A	0.584
A42C G52U	0.282

Variant	self-cleavage
A43U A71G	0.405
A42G C66A	0.702
A42G C66G	0.538
C44A C75A	0.359
C44A C75U	0.218
C44G G54C	0.831
C44G G54A	0.831
C44A G59A	0.762
C44A G59C	0.796
A42U U69G	0.519
A42U U69A	0.364
A42U U69C	0.437
A43C G67U	0.299
C44A C64U	0.665
A43U A45U	0.594
C44G C58U	0.751
A43G G81C	0
A42C U65C	0.268
A45C A87C	0.554
A42U C62U	0.742
C44U C58G	0.712
A42C U47G	0.0594
A42C U47C	0.0791
A42C A77U	0.369

Variant	self-cleavage
A42C A77C	0.161
C44A G55C	0.831
A42C C58G	0.26
A42C C86U	0.178
A42C C86G	0.353
A42C C86A	0.312
A43G G55U	0.378
A43G G55C	0.743
A42G A70G	0.623
A42G A70C	0.798
A42G C85G	0.522
C44A G74U	0.702
A43G A51G	0.26
A42G C75U	0.397
C44G U69C	0.776
C44G U69A	0.657
C44U A45G	0.739
A43U C66U	0.575
A43G C49A	0.554
A43C C44A	0.665
C44G C75A	0.406
A43G U65A	0.554
C44A G76A	0.873
A45C A51G	0.587

Variant	self-cleavage
A43U A78G	0.262
A43U A78U	0.0489
A42C C85G	0.469
A45C A56G	0.615
A42U G54U	0.465
A43C A71C	0.534
A43C A71U	0.322
A43G A83C	0.268
A45C G53C	0.755
A45C G82A	0.208
A43G U69C	0.302
A43C G73A	0.407
A42C U72A	0.266
C41U G74C	0.174
C41U G74U	0.806
A43U G76A	0.554
C41U U47C	0.799
C41U U47G	0.95
A42U G73U	0.378
A42C C75A	0.116
C44U G52U	0.82
A45C G54A	0.597
A43U G54A	0.487
C44A C58A	1.01

Variant	self-cleavage
C41U U60C	0.906
A42C U79A	0.213
A42C U79C	0.124
A45C C66G	0.587
A42U C63A	0.325
A43G A45G	0.554
A42G A83G	0.361
C44U G82U	0.282
C44U G82A	0.363
C44U C85A	0.814
C44U C85U	0.954
C44G C61U	0.378
C44G C61A	0.724
A43U G53C	0.508
A42U C44U	0.674
A42U U72G	0.322
A43U G74C	0.125
C41U U79C	0.332
A43G C61G	0.739
C44A A87U	0.686
A42G U46A	0.554
A42C G55U	0.409
A42U A70U	0.312
C44U U46A	0.767

Variant	self-cleavage
A43U G81C	0.181
A42U U65A	0.434
A42C G67U	0.261
C44U C64G	0.862
C44A C85G	0.629
C44U C48U	0.898
A45G A56G	0.997
C44G C86U	0.897
A45C C57G	0.851
A42U C64G	0.574
A45C A71C	0.831
A43U G73A	0.322
A43U G73C	0.43
A43C G81A	0.248
C44A A45C	0.692
A42G A71G	0.554
A42G A45C	0.399
A43G U72C	0.434
A43U A56G	0.665
A43U C84A	0.346
C44G G74C	0.185
A42C G80C	0.101
C44A G50C	0.702
A45C U65G	0.745

Variant	self-cleavage
A42U G67C	0.415
A42U G67A	0.47
A42U G67U	0.346
A43C G68A	0.268
C44G G80A	0.223
A43G C58A	0.629
A43G C58G	0.72
A43C G50C	0.284
C44U U47G	0.677
C44U U47C	0.54
C44G U79G	0.196
A45G A83C	0.482
C44G A56U	0.734
C44G C66U	0.694
A42C A87U	0.283
A43C A45U	0.554
C44U U72A	0.678
A42G U72A	0.369
A43G C62U	0.646
A43G C62G	0.415
A43G C64A	0.612
A45C C86U	0.779
A42G G80C	0.364
A43C G59A	0.441

Variant	self-cleavage
A45C C61U	0.796
A45C C61A	0.671
A42G G67A	0.435
C44G G73U	0.397
A43U G52U	0.339
A43U G52C	0.743
C44U C62G	0.464
C44A U69G	0.609
A42U C84U	0.181
A42U C84A	0.655
C44U A83C	0.314
A43U C57U	0.631
A42C C49G	0.178
C44G G50C	0.739
C44G G50U	0.767
A45C G67A	0.719
C41U U69C	0.955
C44U A70G	0.793
C44U A70U	0.955
C41U G82A	0.246
C41U G82U	0.261
A42C A83C	0.101
